Source: publication PMC4666033, “A novel bifunctional GH51 exo-α-L-arabinofuranosidase/endo-xylanase from Alicyclobacillus sp. A4 with significant biomass-degrading capacity” (Biotechnology for Biofuels, 2015)

Substrate: O=[N+]([O-])c1ccc(O[C@@H]2O[C@@H](CO)[C@H](O)[C@H]2O)cc1
Test: purified protein
Format: biochemical, Alicyclobacillus sp. A4
Settings: pH 6.0, McIlvaine buffer, 60 °C, 5 min, substrate 1-10 mM

B1: Ac-Abf51A (Alicyclobacillus sp. A4) (protein)
chain: MSKSIARMTIDPQYQLADVDPRLFGSFIEHLGRAVYGGIYEPDHPSADEMGFRQDVLELVRELQVPIVRYPGGNFVSGYRWEDGVGPLASRPAQLDLAWRSLEPNRVGVNEFVEWAKRANSEVMMAVNLGTRGIDEAKQIVEYCNHPGGSYWSDLRKSHGYEQPHGIKVWCLGNEMDGPWQIGHKTAEEYGRIAEEAAKVMKWVDPSIELVACGSSGSKMPTFPDWERIVLEHTYDHVEYISMHSYYGNRENDLATYLAQSLDMDHFIRSVIATCDYVKAKKRSKKTINISFDEWNVWFHSNEADKQVAPWQVGPPLLEDVYTFEDALVVGCLLITLLRHADRVKMACLAQLVNVIAPIMTENGGVSWKQTIYYPFLHASRYGRGKVMHCSLQSPKYDCKEFTDVPLVESVAVWNQDIAELTIFAVNRSQDGGIELECDIRGFAQASVIEHTVLVHSDLKAANTKEEPQEVIPQHAQGAKVDGGLLFAPLPKLSWNVIRLRV
notes: no signal peptide; pET-30a(+) NdeI/NotI, C-terminal His tag inferred from cloning; E. coli BL21(DE3); Ni-NTA
Work on B1 yielded a Km of 460 µM and a kcat of 23.0 s⁻¹.
